The source of these data is patent publication US20250101437, “[…] FOR […] VARIANTS OF A TARGET ANALYTE, METHODS OF MAKING AND USES […]” (McMaster University, published 2025).

Series [1] has as its target SARS-CoV-2 spike S1 subunit, original Wuhan (SARS-CoV-2 (Wuhan), UniProt P0DTC2 P0DTC2:16-685). Nature of the series: filter; dot blot. To be noted: tags: Sino Biological 40591-V08B1, label: 5'-32P.
The target in series [2] is NL63 spike RBD (Human coronavirus NL63, UniProt Q6Q1S2 Q6Q1S2:481-616). Nature of the series: filter; 50 nM protein. The settings on record: label: 5'-32P; four-way junction (proposed).
Series [3] has as its target Bovine serum albumin (Bos taurus, UniProt P02769 P02769:25-607). The experiment in a line: filter; 50 nM protein. To be noted: tags: Sigma-Aldrich; label: 5'-32P; four-way junction (proposed).
Series [4] has as its target alpha-thrombin (Homo sapiens, UniProt P00734;P00734 P00734:328-363,P00734:364-622). The experiment in a line: filter; 50 nM protein. The settings on record: tags: Sigma-Aldrich; label: 5'-32P; four-way junction (proposed).
Series [5] addresses T1, SARS-CoV-2 spike S1 subunit, original Wuhan (SARS-CoV-2 (Wuhan), UniProt P0DTC2 P0DTC2:16-685). The experiment in a line: filter; dot blot. To be noted: tags: Sino Biological 40591-V08B1; label: 5'-32P.
The target of series [6] is MERS-CoV spike RBD (MERS-CoV, UniProt K9N5Q8 K9N5Q8:367-606). The experiment in a line: filter. The settings on record: label: 5'-32P.
Series [7] deals with SARS-CoV-2 spike (WH) on pseudotyped lentivirus (SARS-CoV-2 (Wuhan-Hu-1), UniProt P0DTC2 P0DTC2:14-1273). The experiment in a line: filter. To be noted: protein: virion; tags: pseudotyped lentivirus, BEI NR-52948 kit; chain copies: 3; label: 5'-32P; four-way junction (proposed).
Series [8] has as its target SARS-CoV-1 spike RBD (SARS-CoV-1, UniProt P59594 P59594:306-527). Nature of the series: filter. The settings on record: label: 5'-32P.
The target in series [9] is SARS-CoV-1 spike protein (SARS-CoV-1, UniProt P59594 P59594:14-1195). Nature of the series: filter. The settings on record: label: 5'-32P.
The target of series [10] is 229E spike RBD (Human coronavirus 229E, UniProt P15423 P15423:293-435). Nature of the series: filter; dot blot; very weak binding. To be noted: label: 5'-32P; four-way junction (proposed).
For series [11], the target named is OC43 spike RBD (Human coronavirus OC43, UniProt P36334 P36334:333-607). Nature of the series: filter; dot blot; very weak binding. The settings on record: label: 5'-32P; four-way junction (proposed).
The target of series [12] is SARS-CoV-2 spike trimer, original Wuhan (WHS) (SARS-CoV-2 (Wuhan-Hu-1), UniProt P0DTC2 P0DTC2:14-1213). Nature of the series: filter; […]; binding buffer ([…], Mg, Tween-20, pH 7.4). The settings on record: tags: full-length trimeric spike, Expi293 cells, Ni-NTA purified; chain copies: 3 (stated trimeric); label: 5'-32P.
For series [13], the target named is T1, SARS-CoV-2 spike S1 subunit, original …. The experiment in a line: competition. The settings on record: tags: Sino Biological 40591-V08B1.

Sequence of 229E spike RBD (P15423 293-435, one chain of several): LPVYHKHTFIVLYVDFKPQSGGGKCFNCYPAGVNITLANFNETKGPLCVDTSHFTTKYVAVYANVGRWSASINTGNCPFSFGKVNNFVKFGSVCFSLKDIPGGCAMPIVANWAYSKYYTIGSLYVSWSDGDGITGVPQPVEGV
Sequence of NL63 spike RBD (Q6Q1S2 481-616, one chain of several): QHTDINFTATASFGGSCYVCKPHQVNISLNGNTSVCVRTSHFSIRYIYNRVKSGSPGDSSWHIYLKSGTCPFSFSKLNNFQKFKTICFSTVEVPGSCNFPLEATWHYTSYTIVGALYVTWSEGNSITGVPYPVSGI
Sequence of OC43 spike RBD (P36334 333-607, one chain of several): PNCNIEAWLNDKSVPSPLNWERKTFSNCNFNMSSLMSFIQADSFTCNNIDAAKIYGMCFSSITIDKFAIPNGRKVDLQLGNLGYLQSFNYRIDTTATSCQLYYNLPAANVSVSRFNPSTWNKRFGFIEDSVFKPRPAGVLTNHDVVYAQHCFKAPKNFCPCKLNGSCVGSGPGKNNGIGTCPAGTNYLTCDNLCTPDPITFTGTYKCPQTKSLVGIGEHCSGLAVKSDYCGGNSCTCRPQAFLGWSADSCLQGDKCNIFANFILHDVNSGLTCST
Sequence of Bovine serum albumin (P02769 25-607, one chain of several): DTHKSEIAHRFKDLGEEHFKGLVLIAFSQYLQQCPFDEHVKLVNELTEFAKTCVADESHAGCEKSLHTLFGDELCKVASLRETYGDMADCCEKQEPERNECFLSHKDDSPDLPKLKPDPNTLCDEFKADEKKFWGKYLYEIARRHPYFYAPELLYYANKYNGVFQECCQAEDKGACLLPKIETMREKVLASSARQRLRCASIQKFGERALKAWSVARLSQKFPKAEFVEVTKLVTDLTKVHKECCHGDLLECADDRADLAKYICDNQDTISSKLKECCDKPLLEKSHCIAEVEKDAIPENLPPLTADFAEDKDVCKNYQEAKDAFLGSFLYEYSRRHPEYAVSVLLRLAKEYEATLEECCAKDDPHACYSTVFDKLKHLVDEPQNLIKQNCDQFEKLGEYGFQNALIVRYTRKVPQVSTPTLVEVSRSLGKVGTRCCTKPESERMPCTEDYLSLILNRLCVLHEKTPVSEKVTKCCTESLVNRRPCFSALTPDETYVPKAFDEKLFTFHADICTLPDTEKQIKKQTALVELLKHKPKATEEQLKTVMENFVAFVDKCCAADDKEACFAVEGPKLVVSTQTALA

B1: MSA52-T1 (ssDNA)
DNA: TTACGTCAAGGTGTCATTGGCTCCGGGCCTGGCGTCGGTCGTCTCTCGCGAAGCATCTCTTTGGCGTG
B1 had a Kd in series [1] of 61.8 nM.

B2: MSA52-T3 (ssDNA)
DNA: TTACGTCAAGGTGTCACTCCGTAGGGTTTGGCTCCGGGCCTGGCATCTCTTTGGCGTG
As to B2, the dissociation constant Kd in series [1] was found to be 94.8 nM.

B3: MSA52-T5 (ssDNA)
DNA: ACGCCAAGGTGTCACTCCGTAGGGTTTGGCTCCGGGCCTGGCGTCGGTCGCGAAGCATCTCCTTGGCGT
For the molecule B3, the dissociation constant (Kd) in series [1] (four-way junction (proposed)) came to 5.5 nM.

B4: MSA52-T2 (ssDNA)
DNA: TTACGTCAAGGTGTCACTCCGTAGGGTTTGCTGGCGTCGGTCGTCTCTCGCGAAGCATCTCTTTGGCGTG
B4 gave a Kd in [1] of 53.4 nM.

B5: MSA52 (ssDNA)
DNA: TTACGTCAAGGTGTCACTCCGTAGGGTTTGGCTCCGGGCCTGGCGTCGGTCGTCTCTCGCGAAGCATCTCTTTGGCGTG
With B5, the binding result in [2], in series [3], in [4], in series [6] and in series [8] was “no binding” each time. Further, the equilibrium dissociation constant (Kd) was 6.6 nM in series [5]; 0.0184 nM in series [7]; above 150 nM in series [9]; above 200 nM in series [10]; above 200 nM in series [11]; 3.6 nM in series [12].

B6: MSA52-T4 (ssDNA)
DNA: TTACGTCAAGGTGTCACTCCGTAGGGTTTGGCTCCGGGCCTGGCGTCGGTCGCGAAGCATCTCTTTGGCGTG
B6 had an equilibrium dissociation constant (Kd) in [1] of 6 nM.

B7: Mutant Control (MC, shuffled MSA52) (ssDNA)
DNA: TCTTTCGTGCCATCCTGCGGGTGGCTGTCCGAGGCTGGTGGCTCTGCAAGTGCCACGCTTTATCTGAGGTTCGCCGGTA
In the case of B7, the binding result in series [13] is listed as “no binding”.
